From patent publication US20200164029A1 (ACCELERON PHARMA, published 2020)

T1: hENG(360-581)-hFc (human, UniProt P17813 360-581)
T1 construct: not shown: human IgG1 Fc domain
T1 sequence: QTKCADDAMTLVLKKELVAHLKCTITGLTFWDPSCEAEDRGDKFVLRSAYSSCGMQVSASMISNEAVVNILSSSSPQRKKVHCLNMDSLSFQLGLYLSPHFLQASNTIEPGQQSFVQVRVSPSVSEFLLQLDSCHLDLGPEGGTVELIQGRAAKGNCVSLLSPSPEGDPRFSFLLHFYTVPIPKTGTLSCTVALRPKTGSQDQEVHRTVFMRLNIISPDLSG

T2: hENG(26-329)-hFc (human, UniProt P17813 26-329)
T2 construct: not shown: human IgG1 Fc domain
T2 sequence: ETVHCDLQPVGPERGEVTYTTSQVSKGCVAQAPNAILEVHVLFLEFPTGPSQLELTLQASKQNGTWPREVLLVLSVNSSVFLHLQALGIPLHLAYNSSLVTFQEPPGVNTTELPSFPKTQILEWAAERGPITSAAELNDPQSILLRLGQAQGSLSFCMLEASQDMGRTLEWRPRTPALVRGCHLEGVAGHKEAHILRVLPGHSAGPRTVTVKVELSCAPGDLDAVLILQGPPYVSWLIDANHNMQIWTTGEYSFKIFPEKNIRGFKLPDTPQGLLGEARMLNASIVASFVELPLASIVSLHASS

T3: hENG(166-346)-hFc (human, UniProt P17813 166-346)
T3 construct: not shown: human IgG1 Fc domain
T3 sequence: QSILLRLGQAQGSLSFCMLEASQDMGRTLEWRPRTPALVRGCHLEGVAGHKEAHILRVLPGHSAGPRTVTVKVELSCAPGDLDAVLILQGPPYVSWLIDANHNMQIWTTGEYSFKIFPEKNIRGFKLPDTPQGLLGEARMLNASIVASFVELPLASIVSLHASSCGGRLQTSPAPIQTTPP

T4: hENG(438-586)-hFc (human, UniProt P17813 438-586)
T4 construct: not shown: human IgG1 Fc domain
T4 sequence: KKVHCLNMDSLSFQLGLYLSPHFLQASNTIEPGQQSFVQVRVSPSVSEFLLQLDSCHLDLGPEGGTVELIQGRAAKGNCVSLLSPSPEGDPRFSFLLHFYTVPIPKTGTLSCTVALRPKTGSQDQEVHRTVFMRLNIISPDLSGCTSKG

T5: hENG(26-586) (R&D Systems, catalog #1097-EN) (human, UniProt P17813 26-586)
T5 construct: also called soluble human ENG extracellular domain
T5 sequence: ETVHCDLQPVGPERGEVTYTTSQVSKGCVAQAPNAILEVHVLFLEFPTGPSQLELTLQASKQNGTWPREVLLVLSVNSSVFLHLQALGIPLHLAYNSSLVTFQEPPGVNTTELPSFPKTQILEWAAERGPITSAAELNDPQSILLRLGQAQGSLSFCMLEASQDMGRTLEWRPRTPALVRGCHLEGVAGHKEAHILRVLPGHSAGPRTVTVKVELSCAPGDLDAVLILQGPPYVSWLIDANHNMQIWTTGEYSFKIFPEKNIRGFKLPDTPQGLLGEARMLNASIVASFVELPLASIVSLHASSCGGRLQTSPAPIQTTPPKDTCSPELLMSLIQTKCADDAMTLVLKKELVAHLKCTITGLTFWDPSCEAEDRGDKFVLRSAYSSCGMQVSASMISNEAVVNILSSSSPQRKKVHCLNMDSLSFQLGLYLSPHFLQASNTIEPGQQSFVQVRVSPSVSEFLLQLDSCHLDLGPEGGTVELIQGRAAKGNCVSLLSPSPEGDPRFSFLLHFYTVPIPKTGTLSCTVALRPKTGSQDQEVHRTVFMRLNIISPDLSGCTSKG


Tests used:
hENG(360-581)-hFc = biological target: T1, hENG(360-581)-hFc; experiment: SPR, captured hENG-hFc, soluble ligand
hENG(26-329)-hFc = biological target: T2, hENG(26-329)-hFc; experiment: SPR, captured hENG-hFc, soluble ligand
hENG(166-346)-hFc = biological target: T3, hENG(166-346)-hFc; experiment: SPR, captured hENG-hFc, soluble ligand
hENG(438-586)-hFc = biological target: T4, hENG(438-586)-hFc; experiment: SPR, captured hENG-hFc, soluble ligand
[1] = biological target: T5, hENG(26-586) (R&D Systems, catalog …); experiment: SPR competition in solution: 0-50 nM hENG(26-586) premixed with 10 nM BMP-10, binding of BMP-10 to captured ALK1-hFc read out
Text: (§1) BMP-9 and BMP-10 are high-affinity ligands at the type I receptor ALK1 (activin receptor-like kinase 1). […] Similar results were obtained with BMP-10 (FIG. 21).

[2] = biological target: T5, hENG(26-586) (R&D Systems, catalog …); experiment: SPR competition in solution: 0-50 nM hENG(26-586) premixed with 10 nM BMP-9, binding of BMP-9 to captured ALK1-hFc read out
Text: as §1

Row | binding result (hENG(360-581)-hFc) | binding result (hENG(26-329)-hFc) | binding result (hENG(166-346)-hFc) | binding result (hENG(438-586)-hFc) | binding result [1] | binding result [2] | Binder
1 | no binding (tested: 100 nM) | no binding (tested: 100 nM) | no binding (tested: 100 nM) | no binding (tested: 100 nM) | binds | – | human BMP-10 (ligand, UniProt O95393 317-424, looked up, also called hBMP-10) NAKGNYCKRTPLYIDFKEIGWDSWIIAPPGYEAYECRGVCNYPLAEHLTPTKHAIIQALVHLKNSQKASKACCVPTKLEPISILYLDKGVVTYKFKYEGMAVSECGCR
2 | no binding (tested: 100 nM) | no binding (tested: 100 nM) | no binding (tested: 100 nM) | no binding (tested: 100 nM) | – | binds | human BMP-9 (ligand, UniProt Q9UK05 320-429, looked up, also called hBMP-9) SAGAGSHCQKTSLRVNFEDIGWDSWIIAPKEYEAYECKGGCFFPLADDVTPTKHAIVQTLVHLKFPTKVGKACCVPTKLSPISVLYKDDMGVPTLKYHYEGMSVAECGCR
